{
  "source": "patent US20120207771A1",
  "about": "(MORPHOTEK, published 2012)",
  "binders": {"B1": {"name": "19D4.B7 antibody (antibody, mouse IgG2a, V domains shown)", "VH": "GAELVKPGASVKLSCTASGFNIKHPYMHWVKQRPDQGLEWIGRIDPANGNTKYDPKFQGKATITADTSSNTAYLQLSSLTSEDTAVYYCGREEVADYTMDYWGQGTSVTVSS", "VL": "PASLAVSLGQRATISCRASESVDTYGNNFIHWYQQKPGQPPKLLIYLASNLESGVPARFSGSGSRTDFTLTIDPVEADDAATYYCQQNNGDPWTFGGGTKLEIKR", "notes": "ATCC PTA-11884"}, "B2": {"name": "9F3.H9.H3.H3.B5.G2 antibody (antibody, mouse IgG2a, V domains shown)", "VH": "ESGPGLVRPSQSLSLTCSVTGYSITSGYYWNWIRQFPGSRLEWMGYIKSDGSNNYNPSLKNRISITRDTSKNQFFLKLNSVTTEDTATYFCTREWKAMDYWGQGTSVTVSS", "VL": "PAIMSASPGEKVTMTCRASSTVSYSYLHWYQQKSGASPQLWIYGTSNLASGVPARFSGSGSGTSYSLTISSVEAEDAATYYCQQYSGYPLTFGAGTKLELKR", "notes": "ATCC PTA-11887"}, "B3": {"name": "26B3.F2 antibody (antibody, mouse IgG1, V domains shown)", "VH": "GPELVKPGASVKISCKASDYSFTGYFMNWVMQSHGKSLEWIGRIFPYNGDTFYNQKFKGRATLTVDKSSSTAHMELRSLASEDSAVYFCARGTHYFDYWGQGTTLTVSS", "VL": "PASLSASVGETVTITCRTSENIFSYLAWYQQKQGISPQLLVYNAKTLAEGVPSRFSGSGSGTQFSLKINSLQPEDFGSYYCQHHYAFPWTFGGGSKLEIKR", "notes": "ATCC PTA-11885"}, "B4": {"name": "24F12.B1 antibody (antibody, mouse IgG1, V domains shown)", "VH": "SGGGLVRPGGSLKLSCAASGFTFSSYAMSWVRQSPEKRLEWVAEIGSGGSYTYYPDTVTGRFTISRDNAKSTLYLEMSSLRSEDTAIYYCARETTAGYFDYWGQGTTLTVSS", "VL": "TSSLSASLGDRVTISCSASQGINNFLNWYQQKPDGTVKLLIYYTSSLHSGVPSRFSGSGSGTDYSLTISNLEPEDIAIYYCQHFSKLPWTFGGGTKLEIKR", "notes": "ATCC PTA-11886"}, "B5": {"name": "MORAb-003 antibody (antibody, human IgG1, kappa, V domains shown)", "VH": "EVQLVESGGGVVQPGRSLRLSCSASGFTFSGYGLSWVRQAPGKGLEWVAMISSGGSYTYYADSVKGRFAISRDNAKNTLFLQMDSLRPEDTGVYFCARHGDDPAWFAYWGQGTPVTVSS", "VL": "DIQLTQSPSSLSASVGDRVTITCSVSSSISSNNLHWYQQKPGKAPKPWIYGTSNLASGVPSRFSGSGSGTDYTFTISSLQPEDIATYYCQQWSSYPYMYTFGQGTKVEIKR", "notes": "Used labeled with ruthenium chelate (ECLIA) or biotin (EIA) as detector, or unlabeled as capture antibody"}},
  "key": {"[1]": {"biological_target": "T1, folate receptor alpha (FRα), human (human, UniProt P15328 25-234)", "T1 construct": "also called FR-alpha; FOLR-1", "T1 sequence (P15328 25-234 limits assumed)": "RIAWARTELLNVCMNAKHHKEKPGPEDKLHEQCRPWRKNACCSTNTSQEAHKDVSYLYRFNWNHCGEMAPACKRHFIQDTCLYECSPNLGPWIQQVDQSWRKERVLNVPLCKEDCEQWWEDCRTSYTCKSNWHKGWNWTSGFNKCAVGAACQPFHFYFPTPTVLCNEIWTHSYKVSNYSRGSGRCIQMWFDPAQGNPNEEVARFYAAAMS", "assay": "sandwich ECLIA on serum, 19D4 as detector (Pair 2)", "description": "(§1) FRα levels in the serum of patients with ovarian cancer, patients with lung cancer, and normal controls were assessed. Serum FRα levels were assessed using ECLIA with two different pairs of capture-detector antibodies: Pair 1, in which 9F3 was the capture antibody and 24F12 was the detector antibody, and Pair 2, in which 26B3 was the capture antibody and 19D4 was the detector antibody.\n(§2) The FRα pairs were tested with full calibrator curves and 196 individual serums diluted 1:4. In one experiment, 26B3 was used as the capture antibody after CR processing on a plate lot (75 μg/mL, +B, +T) and 19D4 was used as the detector antibody at 1.0 μg/mL. In another experiment, 9F3 was used as the capture antibody and 24F12 was used as the detector antibody at 1.0 μg/mL. Each were CR processed (lot 10070) with an label to protein ratio (L/P) of 13.3. Diluent 100 (Meso Scale Discovery, Gaithersburg, Md.)+human anti-mouse antibody (HAMA)+mIgG was used for samples and calibrator. Diluent 3 (Meso Scale Discovery, Gaithersburg, Md.) was used for detections.\n(§3) The following protocol was employed for the ECLIA. Samples were added at 50 μL/well. The samples were shaken for 2 hours and subsequently washed with Phosphate Buffered Saline (PBS) solution with the detergent Tween 20 (PBST). […] Finally, the electrochemiluminescence (ECL) emission of the samples was read with 2×MSD® Buffer T."}, "[2]": {"biological_target": "T1, folate receptor alpha (FRα), human", "assay": "sandwich ECLIA on serum, 9F3 as capture (Pair 1)", "description": "as §1, §2, §3"}, "[3]": {"biological_target": "T1, folate receptor alpha (FRα), human", "assay": "sandwich ECLIA on serum, 26B3 as capture (Pair 2)", "description": "as §1, §2, §3"}, "[4]": {"biological_target": "T1, folate receptor alpha (FRα), human", "assay": "sandwich ECLIA on serum, 24F12 as detector (Pair 1)", "description": "as §1, §2, §3"}, "[5]": {"biological_target": "T1, folate receptor alpha (FRα), human", "assay": "sandwich EIA, biotin-labeled detector MORAb-003, capture MOV18, row '1-S' (label not explained)"}},
  "data": [
    {"binder": "B1", "values": [
      {"measurement": "binding result", "setting": "[1]", "result": "binds"}
    ]},
    {"binder": "B2", "values": [
      {"measurement": "binding result", "setting": "[2]", "result": "binds"}
    ]},
    {"binder": "B3", "values": [
      {"measurement": "binding result", "setting": "[3]", "result": "binds"}
    ]},
    {"binder": "B4", "values": [
      {"measurement": "binding result", "setting": "[4]", "result": "binds"}
    ]},
    {"binder": "B5", "values": [
      {"measurement": "binding result", "setting": "[5]", "result": "binds"}
    ]}
  ]
}
